This data set relates to MS2 coat protein. Kind of data set: apparent KD of MS2 coat protein; designed switch direction (-1 OFF switch, 1 ON switch): 1; higher = weaker reporter binding. In short, it runs like this: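 On Illumina chips, designed RNA switches with common flanks were made by stalled E. coli RNA polymerase. Titrations with SNAP-549-labelled MS2 coat protein, doubling from 0.7 or 1.5 nM to 3 µM, were done with no input, with 200 uM small-molecule ligand, or with an oligonucleotide input. Apparent KD is the median per design over clusters, from curve fits of normalised cluster fluorescence.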

Where [1] appears, read: input ligand: microRNA oligo, concentration not stated.
Setting [2] is: Eterna round: R95, input ligand: FMN 200 uM.
[3] abbreviates: Eterna round: R95, input ligand: microRNA oligo, concentration not stated.
The mark [4] stands for this setting: Eterna round: R95, input ligand: none.

Regarding “GUUCGGAAUCGAGCUGACAUGAGGAUCACCCAUGUUAGUGGGAAGGAUAUGGUACAGAAACUGUACCAGAAGGUCCUGCUGUCU [MOD2 Omei's SS(NG) 3 AV9] (Eterna round: R96, puzzle: Same State NG 3)”, the “apparent KD of MS2 coat protein” value is, setting by setting: (input ligand: FMN 200 uM) 38.2 nM; under setting [1], 57.2 nM; (input ligand: none) 59.5 nM.
In the case of “GGUGCAAUAAACGCCUACAUGAGGAUCACCCAUGUAUGUAGGCAGGAUAUCGUUUGCAAAGCAAACGAGAAGGGCUGUAGUACC [Mat - Same State NG 3 - JL Mod - D41] (Eterna round: R96, puzzle: Same State NG 3)”, the “apparent KD of MS2 coat protein” value was found to be 51.5 nM (input ligand: FMN 200 uM), 82.3 nM under setting [1] and 142 nM (input ligand: none).
Take “UGAACCUUCACAGGAUAUCAUGCGAAAAUUGCGUGAGAAGGGUGAAUACGGUGUUCAUAGUUGCACAUGAGGAUCACCCAUGUA [SameState NG1 #54] (Eterna round: R96, puzzle: Same State NG 1)”: the “apparent KD of MS2 coat protein” value (input ligand: FMN 200 uM) came out at 141 nM, the “apparent KD of MS2 coat protein” value under setting [1] worked out at 69.2 nM and the “apparent KD of MS2 coat protein” value (input ligand: none) turned out to be 316 nM.
The matching figures for “UGCUAGUGGGUAGGAUAUCUAGGAUAUGGGAAAGACUAAGUCUGUAGGUCACCUAACCCAGAAGGAGAGAAGGACCAUUCAGCU [pwkr ssNG2 2FMN + F9.26] (Eterna round: R96, puzzle: Same State NG 2)”: 165 nM, 22.5 nM and 38 nM.
For the sequence “CAGCGCUGUCGAGAGGAUAUGCGGUGAUGGACAUGAGGAUCACCCAUGUUAGCGACAGCAUCACGGCAGAAGGCUCUACCGCCUG [Soteed Omei mod 43] (puzzle: Same State 2)”, the “apparent KD of MS2 coat protein” value under setting [2] was 17.9 nM, the “apparent KD of MS2 coat protein” value under setting [3] came out at 22.4 nM and the “apparent KD of MS2 coat protein” value under setting [4] turned out to be 32.3 nM.
Turning to “AAACAUGAGCGAGGAUAUGCGGAGGAUUACCCUGUAGAAGGCGCAUGUAAAACAACAUGAGGAUCACCCAUGUCAUGUACAUGU (Eterna round: R96, puzzle: Same State NG 1)”, the “apparent KD of MS2 coat protein” value was found to be 168 nM (input ligand: FMN 200 uM), 115 nM under setting [1] and 226 nM (input ligand: none).
Consider “AGGAUGAGAACAGGAUAUUCGACAUGAGGAUCACCCAUGUGGCAAGUAGGUGACGAUGAAUGACGGAAGAAGGGUUACGAGGAG [Same State NG2] (Eterna round: R96, puzzle: Same State NG 2)”, for which the “apparent KD of MS2 coat protein” value came out at 375 nM (input ligand: FMN 200 uM), 197 nM under setting [1] and 199 nM (input ligand: none).
For the sequence “AGACUACAACCUCGAACAUGAGGAUCACCCAUGUAAAGAUCCAAGGAUAUGGACAGGCCGAGCUACCAGAAGGUGGAAAGAGCC [Eternabot solution 7] (Eterna round: R96, puzzle: Same State NG 3)”, the “apparent KD of MS2 coat protein” value was determined as 40.9 nM (input ligand: FMN 200 uM), 38.4 nM under setting [1] and 69.8 nM (input ligand: none).
As to “GGAGCCGGCACUGAGGAUAUUCAUAUUUAAACAUGAGGAUCACCCAUGUAGGCCAGAAGGCCUUGGGAGAAGGCAGGUCGGCUCG [salish99_ss2_r3_076] (puzzle: Same State 2)”, the “apparent KD of MS2 coat protein” value by setting is: under setting [2], 26 nM; under setting [3], 216 nM; under setting [4], 493 nM.
For the sequence “GCGAAAGCGGUAGGAUAUCUAGGAUAUGGGAAGACCUAAGGUUGGAAGUCACUUCACCCAGAAGGAGAGAAGGACACCGAAAGG [pwkr ssNG2 2FMN + F9.2] (Eterna round: R96, puzzle: Same State NG 2)”, the “apparent KD of MS2 coat protein” value came out at 36.6 nM (input ligand: FMN 200 uM), 113 nM under setting [1] and 134 nM (input ligand: none).
In the case of “GAAAAACAUGAGGAUCACCCAUGUAAAAAAAUGGGAGGAUAUACAAAGACGAAAGUCAAAGUAGAAGGCCUGAAAG [same state 2] (Eterna round: R96, puzzle: Same State 1)”, the “apparent KD of MS2 coat protein” value under setting [1] was found to be 42.7 nM.
Regarding “CACAUGAGGAUCACCCAUGUGAGGCGGCAAUAAAACCGCGCACAGGAUAUAGCGCUAAGAAUGCGCUAGAAGGGUGAUUAGAAC [Esenla] (Eterna round: R96, puzzle: Same State NG 3)”, the “apparent KD of MS2 coat protein” value (input ligand: FMN 200 uM) was 746 nM, the “apparent KD of MS2 coat protein” value under setting [1] stood at 10.4 nM and the “apparent KD of MS2 coat protein” value (input ligand: none) was 39.2 nM.
On the same counts, the results for “AUUGGGUAACGAGGAUAUCGUAUUUGUUUGUUUCGAGAAGGCGUUAUAGUUUCUUUCUAUUGUUACAUGAGGAUCACCCAUGUU [JR_SSNG1_Sub052] (Eterna round: R96, puzzle: Same State NG 1)” are 19.1 nM, 15 nM and 19.9 nM.
For the sequence “CAGUGCUGUCGAGAGGAUAUGCGGUGAUGGACAUGAGGAUCACCCAUGUUAGCGACAGCGUUACGGCAGAAGGCUCUACCCACUG [Soteed Omei mod 47] (puzzle: Same State 2)”, the “apparent KD of MS2 coat protein” value under setting [2] worked out at 62.5 nM, the “apparent KD of MS2 coat protein” value under setting [3] was 28.7 nM and the “apparent KD of MS2 coat protein” value under setting [4] stood at 42.7 nM.
As to “GUUACAUGAGGAUCACCCAUGUGUGUGUGGGAGUGAGUGGCUUAGGAUAUCUAUGAUUUUAGUUAAGAGAAGGAGGAUUGCUGU [SS-NG3-LRO07] (Eterna round: R96, puzzle: Same State NG 3)”, the “apparent KD of MS2 coat protein” value by setting is: (input ligand: FMN 200 uM) 275 nM; under setting [1], 267 nM; (input ligand: none) 414 nM.
On the same counts, the results for “GUAGCAUACCGAGGAUAUUCAUAUAAUAAAUACAUGAGGAUCACCCAUGUUAGGCGAAAGCCUUGGGAGAAGGCGGAAUGCUAC [Xeonanis - 20 Mod58] (Eterna round: R96, puzzle: Same State NG 2)” are 14.4 nM, 35.8 nM and 44.8 nM.
The matching figures for “GGAGCCGGCCUAGGAUAUUUCAUUAAAAAACAUGAGGAUCACCCAUGUAGGCCAGAAGGCCUUGGGAAGAAGGAGGUCGGCUCC [Loop Effect - U24] (Eterna round: R96, puzzle: Same State NG 2)”: 12.7 nM, 16.2 nM and 24.6 nM.
As to “UAGGGACAUGAGGAUCACCCAUGUGCCUCAUAUGGAGAAACACAGGAUAUGCUGAGGGAAACAUGGCAGAAGGGUGAAGAGAGG [Default title] (Eterna round: R96, puzzle: Same State NG 3)”, the “apparent KD of MS2 coat protein” value is, setting by setting: (input ligand: FMN 200 uM) 31.9 nM; under setting [1], 27.3 nM; (input ligand: none) 50.9 nM.
On the same counts, the results for “CUGAGCGAUUAAGGAUAUCACGUCGAAUAGACGUGAGAAGGUGAUCAUAACAUGAGGAUCACCCAUGUAUUACAUGAAGCUCAG [SSNG1/3-A1] (Eterna round: R96, puzzle: Same State NG 1)” are 305 nM, 100 nM and 108 nM.
“GGAUGAUGGACAGGAUAUUGAUUGUAAUGGUGUCAAGAAGGGUCUUUGAUUUAAACGACCAGUUACAUGAGGAUCACCCAUGUU [JR_SSNG1_Sub031] (Eterna round: R96, puzzle: Same State NG 1)”: the “apparent KD of MS2 coat protein” value is, setting by setting: (input ligand: FMN 200 uM) 133 nM; under setting [1], 107 nM; (input ligand: none) 205 nM.
Regarding “UGUUGUAUUACAGGAUAUCUAGUAUUAUUAUUUAGAGAAGGGUAUUCACAUGAGGAUCACCCAUGUAUAUACGAGGAAGUUGUG [JMF's solution 39] (Eterna round: R96, puzzle: Same State NG 1)”, under setting [1], the “apparent KD of MS2 coat protein” value was 28.2 nM.
The same measure, in the same setting: the same measure for “CACAAUCUAUCUGAGGAUAUCAUGAAAAAAACAUGAGGAUCACCCAUGUGCAGGAAAACUGCAUAUGAGAAGGCAGAUAGAUUGU [salish99_SS2_r3_015] (Eterna round: R96, puzzle: Same State 2)”: 514 nM.
As to “CACAAUCUAUCUGAGGAUAUCAUGAAAAAAACAUGAGGAUCACCCAUGUGCAGGAAAACUGCAUAUGAGAAGGCAGAUAGAUUGU [salish99_SS2_r3_015] (puzzle: Same State 2)”, the “apparent KD of MS2 coat protein” value reads like this: under setting [2], 28.3 nM; under setting [3], 720 nM; under setting [4], 913 nM.
The matching figures for “UUUAAACAUGAGGAUCACCCAUGUCAACAAAGUCGAGGAUAUGGGCAAAUAAAAUAAGAACCAGAAGGCGAAUAAU [salish99_ss1_r3_068] (puzzle: Same State 1)”: 49.2 nM, 585 nM and 334 nM.
As to “GAUUAACAUGAGGAUCACCCAUGUCGUAUUAUGGGAGGAUAUACGUGGACCGUAGUCCGCGUAGAAGGCCUAAUUG [JL-ss1-3.21 janelle mod] (puzzle: Same State 1)”, the “apparent KD of MS2 coat protein” value under setting [3] came to 76.4 nM.
Consider “GUUACAUGAGGAUCACCCAUGUAUGUGUGGGAGUAAGUGUCUUAGGAUAUCUGUUAUUUAGUUUAAGAGAAGGAAGAUUGUUGU [JMF's solution 41] (Eterna round: R96, puzzle: Same State NG 3)”, for which the “apparent KD of MS2 coat protein” value is, setting by setting: (input ligand: FMN 200 uM) 124 nM; under setting [1], 80.9 nM; (input ligand: none) 97.4 nM.
Turning to “UUUGCAUUGCAAGGAUAUUGAUAACAUGAGGAUCACCCAUGUAUAGGUUCAGGAUUUACGAGUAACAAGAAGGUGCUAUUGUUU [JR_SSNG2_Sub040] (Eterna round: R96, puzzle: Same State NG 2)”, the “apparent KD of MS2 coat protein” value (input ligand: FMN 200 uM) is 27.6 nM, the “apparent KD of MS2 coat protein” value under setting [1] stood at 20.7 nM and the “apparent KD of MS2 coat protein” value (input ligand: none) turned out to be 31.8 nM.
Regarding “CGGGUACAUGAGGAUCACCCAUGUAGAAGAGAUGCAGGAUAUGUGGGAAAAGGGAAUGUAACAGAAGGGCAAGGAG [JR_SS!_Sub017] (puzzle: Same State 1)”, the “apparent KD of MS2 coat protein” value was found to be 47.4 nM under setting [2], 56.1 nM under setting [3] and 94.1 nM under setting [4].

The values above are taken from the supplement of paper PMC9170038.
